{"source": "patent US7662384B2", "about": "“Use of anti-α5β1 antibodies to inhibit cancer cell proliferation” (Facet Biotech Corporation, priority 2004, dated 2010)", "molecules": {"B1": {"name": "IIA1: parent mouse IgG1 class anti-α5β1 antibody shown to inhibit α5β1 integrin binding to fibronectin (antibody, V domains shown)", "VH": "MAVLGLLLCLVTFPSCVLSQVQLKESGPGLVAPSQSLSITCTISGFSLTDYGVHWVRQPPGKGLEWLVVIWSDGSSTYNSALKSRMTIRKDNSKSQVFLIMNSLQTDDSAMYYCARHGTYYGMTTTGDALDYWGQGTSVTVSS", "VL": "MDFQVQIFSFLLISASVIMSRGQIVLTQSPAIMSASLGERVTMTCTASSSVSSNYLHWYQQKPGSAPNLWIYSTSNLASGVPARFSGSGSGTSYSLTISSMEAEDAATYYCHQYLRSPPTFGGGTKLEIK", "modifications": "mus muscalus"}, "B2": {"name": "M200: chimeric IgG4 anti-α5β1 antibody derived from IIA1; generic name volociximab (antibody, V domains shown)", "VH": "B1 VH", "VL": "MDFQVQIFSFLLISASVIMSRGQIVLTQSPAIMSASLGERVTMTCTASSSVSSNYLHWYQQKPGSAPNLWIYSTSNLASGVPARFSGSGSGTSYSLTISSMEAEDAATYYCHQYLRSPPTFGGGTKLEIKDMSVDMSV", "modifications": "chimeric antibody", "notes": "chimeric IgG4 anti-α5β1 antibody derived from IIA1; generic name volociximab"}}, "key": {"human NW231 tumors": {"tested_on": "human NW231 tumors", "experiment": "NW231 xenograft tumor establishment, IIA1 with DOXIL", "type": "in vivo, SCID mice", "conditions": "24 days post-implant (control TIB ~425 mm^3)", "protocol": "The following experiment was conducted in order to determine the efficacy of the anti-α5β1 integrin antibody, IIA1 in combination with the chemotherapeutic agent, DOXIL®, for preventing establishment of human NW231 tumors in vivo. DOXIL® is a liposome encapsulated formulation of doxorubicin HCl, a cytotoxic anthracycline antibiotic isolated from Streptomyces peucetius. The NW231 cell line originated from breast cancer and is considered a good model for studying treatments for breast cancer.\nFour to six week old female SCID mice obtained from Taconic Farms and maintained in micro-isolator cages were inoculated in the mammary fat pads with 1×10^7 NW231 cells. Animals received either TIB control (n=20) or […] (n=20) at 5 mg/kg for the first injection at the time of tumor cell inoculation. Subsequent treatments were at 0.7 mg/kg per injection. DOXIL® treatment was commenced 5 days post tumor cell inoculation. Chemotherapeutic doses were at 4 mg/kg for the first injection and at 2 mg/kg for subsequent injections. Reagents were delivered by intraperitoneal injection for four doses. Tumor volume was measured twice weekly and clinical and mortality observations were performed daily according to IACUC regulations."}, "[1]": {"experiment": "Phase I dose-escalation study: pharmacokinetics (serum ELISA)", "description": "(§1) The serum for measuring M200 concentrations was obtained immediately before and after the first dose, and at 4, 24, 48, and 168 hours after completion of the first dose. Serum samples for measuring M200 concentrations were also taken immediately before, at the end, and 4 hours after the completion of each subsequent infusion. These samples were split and aliquots assayed before the next dose and again at the end of the study: end of 1st dose, 168 hours after 1st dose, immediately pre-dose (trough) and immediately post-dose (peak) for the 2nd, 3rd, 4th and 5th doses. The serum levels of M200 were measured by ELISA.\n(§2) The plasma concentration-time data of M200 from each patient was subjected to a PK analysis. The following parameters were included in the calculations: peak (Cmax) and trough (Cmin) levels, terminal phase half-life (T1/2 β), area under the plasma-concentration time curve (AUC), elimination clearance (CL), and volume of distribution (V). Summary parameters were computed across patients from each treatment group. Changes in the PK parameters as a function of dose and time were also evaluated."}, "NW231": {"tested_on": "NW231", "experiment": "M200 in vitro cell proliferation assay", "type": "cell-based, human", "conditions": "NW231 (breast)", "protocol": "Cancer cell lines were plated at a density of 2500 cells/well in 96-well plates in IMDM with supplements in the presence or absence of 10% FBS. At the time of plating, cells were challenged with various concentrations M200 or a non-function blocking anti-α5 antibody, VC5. […] All growth studies were done at least 3 times in triplicate."}, "[2]": {"molecular_target": "α5β1 integrin binding to fibronectin (Homo sapiens, UniProt P05556+P08648)", "sequence (P08648 42-894 limits assumed)": "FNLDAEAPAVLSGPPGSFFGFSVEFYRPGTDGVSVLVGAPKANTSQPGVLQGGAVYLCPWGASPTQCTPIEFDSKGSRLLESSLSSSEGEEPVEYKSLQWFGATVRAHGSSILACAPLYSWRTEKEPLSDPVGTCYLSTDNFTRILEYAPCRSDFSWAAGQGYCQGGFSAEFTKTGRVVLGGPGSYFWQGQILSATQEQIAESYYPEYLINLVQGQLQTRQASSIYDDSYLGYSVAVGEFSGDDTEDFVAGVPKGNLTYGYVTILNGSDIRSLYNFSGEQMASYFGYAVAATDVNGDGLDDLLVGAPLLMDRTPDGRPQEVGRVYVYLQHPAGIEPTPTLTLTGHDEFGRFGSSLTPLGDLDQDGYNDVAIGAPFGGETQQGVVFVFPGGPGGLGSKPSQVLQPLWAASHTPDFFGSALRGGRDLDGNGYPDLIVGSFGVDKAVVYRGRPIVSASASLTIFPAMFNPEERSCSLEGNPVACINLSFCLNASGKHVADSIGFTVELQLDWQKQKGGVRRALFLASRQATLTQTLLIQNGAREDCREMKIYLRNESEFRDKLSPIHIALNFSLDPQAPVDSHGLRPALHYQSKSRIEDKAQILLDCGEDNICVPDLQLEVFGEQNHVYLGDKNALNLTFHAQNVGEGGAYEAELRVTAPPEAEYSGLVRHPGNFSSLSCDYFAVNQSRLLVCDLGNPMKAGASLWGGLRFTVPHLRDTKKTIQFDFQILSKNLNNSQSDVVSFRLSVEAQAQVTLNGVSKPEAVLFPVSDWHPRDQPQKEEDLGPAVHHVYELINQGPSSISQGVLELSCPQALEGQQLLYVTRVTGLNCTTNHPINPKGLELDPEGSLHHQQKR", "sequence (P08648 895-1049 limits assumed)": "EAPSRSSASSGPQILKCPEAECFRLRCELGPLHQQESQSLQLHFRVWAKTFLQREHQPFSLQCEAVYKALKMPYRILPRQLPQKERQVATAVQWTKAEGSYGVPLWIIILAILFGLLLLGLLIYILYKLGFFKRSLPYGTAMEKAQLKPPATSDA", "sequence (P05556 21-798)": "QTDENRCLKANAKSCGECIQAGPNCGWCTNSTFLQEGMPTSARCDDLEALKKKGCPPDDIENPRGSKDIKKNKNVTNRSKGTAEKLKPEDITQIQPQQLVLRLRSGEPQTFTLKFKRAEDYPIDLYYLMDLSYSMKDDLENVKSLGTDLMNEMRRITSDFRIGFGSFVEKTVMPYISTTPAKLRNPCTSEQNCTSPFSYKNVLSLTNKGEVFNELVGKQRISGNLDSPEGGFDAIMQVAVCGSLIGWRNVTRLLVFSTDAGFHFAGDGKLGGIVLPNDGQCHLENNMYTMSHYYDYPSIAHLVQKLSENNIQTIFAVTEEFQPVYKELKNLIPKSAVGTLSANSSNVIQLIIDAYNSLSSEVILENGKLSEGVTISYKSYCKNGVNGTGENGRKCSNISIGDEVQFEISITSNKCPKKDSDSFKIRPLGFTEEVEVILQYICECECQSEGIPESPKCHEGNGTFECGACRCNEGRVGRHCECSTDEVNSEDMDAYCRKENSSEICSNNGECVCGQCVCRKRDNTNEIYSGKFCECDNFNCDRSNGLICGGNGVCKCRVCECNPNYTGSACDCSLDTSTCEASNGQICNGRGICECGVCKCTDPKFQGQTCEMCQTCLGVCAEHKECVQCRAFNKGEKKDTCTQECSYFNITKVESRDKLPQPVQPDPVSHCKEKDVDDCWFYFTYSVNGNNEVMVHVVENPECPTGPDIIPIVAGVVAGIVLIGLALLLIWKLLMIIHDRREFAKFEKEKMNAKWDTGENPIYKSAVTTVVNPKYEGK", "experiment": "in vitro activity assay: inhibition of binding of α5β1 to fibronectin", "type": "biochemical"}, "VX2 tumors": {"tested_on": "VX2 tumors", "conditions": "rabbit, in vivo, 10 mg/kg", "description": "Rabbits were inoculated on Day 0 with a cell suspension (100 μl) subcutaneously (left hind limb), and intramuscularly at a depth of about 3 mm (right hind limb). Intramuscular inoculation was carried out as follows. With the rabbit under ketamine/isoflurane anesthesia, a ˜2 cm incision was made parallel to the right femur with a scalpel on the anterior, lateral aspect of the femoral axis, ˜⅓ of the total femur length distally from the femoral-pelvic (hip) joint. Muscle groups were separated to create a ˜0.5 cm deep cavity. One VX2 tumor fragment from a donor animal was placed into the cavity. Skin was securely closed with sterile surgical staples or sutures and a topical antibiotic was applied to the wound site.\nM200 was administered intravenously at 10 mg/kg dosage to a tumor-bearing rabbit and the tumor was excised 1 hour later. Tumor sections were stained with either: (i) an anti-human secondary antibody specific for tumor bound M200; (ii) IIA1 followed by an anti-mouse secondary to detect total α5β1; or (iii) a control IgG and anti-mouse secondary."}, "refractory solid tumors": {"tested_on": "refractory solid tumors", "experiment": "Phase I extension study: tumor response", "type": "in vivo, human", "protocol": "A two-part Phase I open-label study was carried to determine the effects of treatment with up to 6 dose levels, from 0.5 mg/kg to 15.0 mg/kg of M200 (volociximab) in 21 human patients with a variety of refractory solid tumor types. The total duration of treatment for the first part was 6 weeks with physical assessments through 45 days after the last dose.\nPatient evaluations during the study included the following: • a. Screening (within 14 days of study entry) of: medical history and physical examination, ECOG performance status, routine chemistry panel, complete blood count (CBC) with differential and platelets, sensitive C-reactive protein (CRP), urinalysis with microscopic analysis (UA/micro), electrocardiogram (ECG), chest radiograph (CXR), disease-directed body CT or MRI, urine pregnancy test within 48 hours prior to dosing, and coagulation studies (prothrombin [PT] and partial thromboplastin time [PTT]), anti-M200 antibodies (i.e., to detect cross-reactive HAMA or HACA) for patients who previously received murine or chimeric antibodies, head CT for patients with tumors that commonly metastasize to brain or CNS, and, in some patients, a biopsy to evaluate tumor vessel vascularity. • b. On-study laboratory evaluations: routine chemistry panel, urate, serum amylase, CBC with differential and platelets, UA/micro. • c. Routine disease-directed radiographic imaging (e.g., CT scanning) before and after treatment with M200 was used to evaluate tumor response using uni-dimensional, RECIST criteria. Target lesions were selected on the basis of their size (lesions with the longest diameter (LD)) and their suitability for accurate repetitive measurements (either by imaging techniques or clinically). A sum of the LD for all target lesions was calculated and reported as the baseline sum LD. The baseline sum LD was used as reference by which to characterize the objective tumor response. The following response criteria for the target lesions was used to assess the best overall response. • Complete Response (CR): Disappearance of all target lesions confirmed by repeat imaging 25 to 28 days after CR first documented. • Partial Response (PR): At least a 30% decrease in the sum of LD of target lesions, taking as reference the baseline sum LD, confirmed by repeat imaging 25 to 28 days after PR first documented. • Stable Disease (SD): Neither sufficient shrinkage to qualify for PR nor sufficient increase to qualify for PD, taking as references the smallest sum LD. • Progressive Disease (PD): At least a 20% increase in the sum of LD of target lesions, taking as reference the smallest sum LD recorded since treatment started, or the appearance of one or more new lesions. • d. Blood drawn for serum PK measurements, immunogenicity assays (anti-M200 antibodies), vascular growth factors, and measurement of bound and unbound α5β1 on peripheral blood monocytes. • e. A 3-mm punch biopsy of superficial tumor metastasis was obtained and frozen after the last treatment with M200 from patients who consented (not required for enrollment) to the procedure. This biopsy specimen could be used evaluate tumor vessel vascularity following treatment with M200.\nOne of these patients with renal cell cancer (RCC) in the 15.0 mg/kg cohort achieved a partial response."}, "[3]": {"experiment": "minimum effective in vitro concentration"}, "[4]": {"conditions": "human, in vivo, 10 mg/kg", "description": "as §1, §2"}, "[5]": {"experiment": "pharmacokinetic studies in cynomolgus monkeys", "type": "in vivo"}, "angiogenesis": {"tested_on": "angiogenesis", "conditions": "rabbit eye model; cited from earlier work"}}, "data": [{"molecule": "B1", "values": [{"measurement": "mean tumor volume", "setting": "human NW231 tumors", "value": "~175", "unit": "mm^3"}]}, {"molecule": "B2", "values": [{"measurement": "mean trough level", "setting": "[1]; 10 mg/kg, two weeks after the 1st dose", "value": 82, "unit": "µg/mL"}, {"measurement": "pharmacokinetics, linearity", "setting": "[1]; slower clearance at the higher concentrations", "value": "non-linear pharmacokinetics"}, {"measurement": "% Growth Inhibition +Serum", "setting": "NW231; 10% FBS, 4-day assay", "value": 35, "unit": "%"}, {"measurement": "% Growth Inhibition −Serum", "setting": "NW231; absence of serum, 2-day rather than 4-day assay", "value": "10^2%"}, {"measurement": "concentration that produces 80% inhibition of binding of α5β1 to fibronectin", "setting": "[2]", "value": 1, "unit": "µg/mL"}, {"measurement": "accessibility of subcutaneous and intramuscular VX2 tumors to antibody, assessed by IHC", "setting": "VX2 tumors", "value": "accessible to M200"}, {"measurement": "Best Response Outcome", "setting": "refractory solid tumors; 2.5 mg/kg, 1 patient, NSCLC", "value": "SD (SD defined as stabilization for ≧16 weeks (112 days))"}, {"measurement": "Time to Progression", "setting": "refractory solid tumors; 2.5 mg/kg, 1 patient, NSCLC, includes 43 days on dose escalation study", "value": 129, "unit": "days"}, {"measurement": "Best Response Outcome", "setting": "refractory solid tumors; 5 mg/kg, 1 patient, HCC", "value": "SD (SD defined as stabilization for ≧16 weeks (112 days))"}, {"measurement": "Time to Progression", "setting": "refractory solid tumors; 5 mg/kg, 1 patient, HCC, includes 43 days on dose escalation study", "value": 122, "unit": "days"}, {"measurement": "Time to Progression", "setting": "refractory solid tumors; 10 mg/kg, 1 patient, CRC, includes 43 days on dose escalation study", "value": 70, "unit": "days"}, {"measurement": "Best Response Outcome", "setting": "refractory solid tumors; 10 mg/kg, 1 patient, PARO", "value": "SD (SD defined as stabilization for ≧16 weeks (112 days))"}, {"measurement": "Time to Progression", "setting": "refractory solid tumors; 10 mg/kg, 1 patient, PARO, includes 43 days on dose escalation study", "value": 143, "unit": "days"}, {"measurement": "Best Response Outcome", "setting": "refractory solid tumors; 15 mg/kg, 1 patient, MEL", "value": "SD (SD defined as stabilization for ≧16 weeks (112 days))"}, {"measurement": "Time to Progression (Days)", "setting": "refractory solid tumors; 15 mg/kg, 1 patient, MEL, on study, includes 43 days on dose escalation study", "value": "172+ (on Study) Days"}, {"measurement": "Time to Progression", "setting": "refractory solid tumors; 15 mg/kg, 1 patient, RCC, includes 43 days on dose escalation study", "value": 214, "unit": "days"}, {"measurement": "patients exhibiting stable disease (SD) or better response", "setting": "refractory solid tumors; of the 6 patients in the extension study", "value": 5, "unit": "patients"}, {"measurement": "minimum effective in vitro concentration", "setting": "[3]", "value": "2 to 3", "unit": "µg/mL"}, {"measurement": "T1/2", "setting": "[4]", "value": 15.7, "unit": "days"}, {"measurement": "mean peak level (serum)", "setting": "[5]; 50 mg/kg after 4 weekly doses", "value": 1862, "unit": "µg/mL"}, {"measurement": "range of peak level (serum)", "setting": "[5]; 50 mg/kg after 4 weekly doses", "value": "1000 to 2606", "unit": "µg/mL"}, {"measurement": "toxicity", "setting": "[5]; at peak serum concentrations after 50 mg/kg, 4 weekly doses", "value": "no toxicity"}, {"measurement": "in vivo anti-angiogenic efficacy", "setting": "angiogenesis", "value": "in vivo anti-angiogenic efficacy"}]}]}
